# Reference: US20180155451A1 (published 2018)
# T1: FcγRIIa H (human, UniProt P12318 34-217)
# T1 construct: extracellular domain; also called FcgRIIa H; FcγRIIa type H; not shown: His tag attached to the C terminus
# T1 sequence (looked up): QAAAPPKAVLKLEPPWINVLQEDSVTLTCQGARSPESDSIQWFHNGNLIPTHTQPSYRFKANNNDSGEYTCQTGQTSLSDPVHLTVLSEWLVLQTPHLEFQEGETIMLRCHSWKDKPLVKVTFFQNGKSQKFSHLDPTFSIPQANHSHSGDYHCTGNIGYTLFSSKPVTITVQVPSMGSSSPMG
# T2: FcγRIIb (human, UniProt P31994 43-217)
# T2 construct: extracellular domain; also called FcgRIIb; 2b; not shown: His tag attached to the C terminus
# T2 sequence (looked up): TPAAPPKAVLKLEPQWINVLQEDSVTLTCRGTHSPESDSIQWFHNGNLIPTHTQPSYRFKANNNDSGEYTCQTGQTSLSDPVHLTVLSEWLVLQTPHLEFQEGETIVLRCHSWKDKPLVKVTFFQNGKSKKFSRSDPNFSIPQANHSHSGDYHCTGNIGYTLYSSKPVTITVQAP
# T3: FcγRIIb extracellular domain with C-terminal His tag (human, UniProt P31994 43-217)
# T3 construct: extracellular domain; also called 2b; FcgRIIb
# T3 sequence (looked up): T2 sequence (looked up)
# B1: GpH7-A5/GpH7-B3 variant G236_19Q/GpL16-k0 (antibody, human IgG1, kappa)
# heavy 1: not shown
# heavy 2: not shown
# light: DIVMTQSPLSLPVTPGEPASISCQASESLVHSNRNTYLHWYLQKPGQSPQLLIYKVSNRFSGVPDRFSGSGSGTDFTLKISRVEAEDVGVYYCSQNTHVPPTFGQGTKVEIERTVAAPSVFIFPPSDEQLKSGTASVVCLLNNFYPREAKVQWKVDNALQSGNSQESVTEQDSKDSTYSLSSTLTLSKADYEKHKVYACEVTHQGLSSPVTKSFNRGEC
# notes: Heterodimerized IgG1, mutation in the GpH7-B3 chain only; also called He Ab
# B2: GpH7-A5/GpH7-B3 variant L234_13S/GpL16-k0 (antibody, human IgG1, kappa)
# heavy 1: not shown
# heavy 2: not shown
# light: B1 light
# notes: as for B1
# B3: GpH7-A5/GpH7-B3 variant L234_11K/GpL16-k0 (antibody, human IgG1, kappa)
# heavy 1: not shown
# heavy 2: not shown
# light: B1 light
# notes: as for B1
# B4: GpH7-A5/GpH7-B3 variant L234_05P/GpL16-k0 (antibody, human IgG1, kappa)
# heavy 1: not shown
# heavy 2: not shown
# light: B1 light
# notes: as for B1
# B5: GpH7-A5/GpH7-B3 variant L234_02A/GpL16-k0 (antibody, human IgG1, kappa)
# heavy 1: not shown
# heavy 2: not shown
# light: B1 light
# notes: as for B1
# B6: GpH7-A5/GpH7-B3 variant L235_01G/GpL16-k0 (antibody, human IgG1, kappa)
# heavy 1: not shown
# heavy 2: not shown
# light: B1 light
# notes: as for B1
# B7: GpH7-A5/GpH7-B3 variant L234_16H/GpL16-k0 (antibody, human IgG1, kappa)
# heavy 1: not shown
# heavy 2: not shown
# light: B1 light
# notes: as for B1
# B8: GpH7-A5/GpH7-B3 variant L234_04F/GpL16-k0 (antibody, human IgG1, kappa)
# heavy 1: not shown
# heavy 2: not shown
# light: B1 light
# notes: as for B1
# B9: GpH7-A5/GpH7-B3 variant L234_14T/GpL16-k0 (antibody, human IgG1, kappa)
# heavy 1: not shown
# heavy 2: not shown
# light: B1 light
# notes: as for B1
# B10: GpH7-A5/GpH7-B3 variant G236_20W/GpL16-k0 (antibody, human IgG1, kappa)
# heavy 1: not shown
# heavy 2: not shown
# light: B1 light
# notes: as for B1
# B11: GpH7-A5/GpH7-B3 variant L234_01G/GpL16-k0 (antibody, human IgG1, kappa)
# heavy 1: not shown
# heavy 2: not shown
# light: B1 light
# notes: as for B1
# B12: GpH7-A5/GpH7-B3 variant L234_12R/GpL16-k0 (antibody, human IgG1, kappa)
# heavy 1: not shown
# heavy 2: not shown
# light: B1 light
# notes: as for B1
# B13: GpH7-A5/GpH7-B3 variant L235_13S/GpL16-k0 (antibody, human IgG1, kappa)
# heavy 1: not shown
# heavy 2: not shown
# light: B1 light
# notes: as for B1
# B14: GpH7-A5/GpH7-B3 variant S239_16H/GpL16-k0 (antibody, human IgG1, kappa)
# heavy 1: not shown
# heavy 2: not shown
# light: B1 light
# notes: as for B1
# B15: GpH7-A5/GpH7-B3 variant L234_19Q/GpL16-k0 (antibody, human IgG1, kappa)
# heavy 1: not shown
# heavy 2: not shown
# light: B1 light
# notes: as for B1
# B16: GpH7-A5/GpH7-B3 variant S239_12R/GpL16-k0 (antibody, human IgG1, kappa)
# heavy 1: not shown
# heavy 2: not shown
# light: B1 light
# notes: as for B1
# B17: GpH7-A5/GpH7-B3 variant S239_11K/GpL16-k0 (antibody, human IgG1, kappa)
# heavy 1: not shown
# heavy 2: not shown
# light: B1 light
# notes: as for B1
# B18: GpH7-A5/GpH7-B3 variant L235_14T/GpL16-k0 (antibody, human IgG1, kappa)
# heavy 1: not shown
# heavy 2: not shown
# light: B1 light
# notes: as for B1
# B19: GpH7-A5/GpH7-B3 variant L235_19Q/GpL16-k0 (antibody, human IgG1, kappa)
# heavy 1: not shown
# heavy 2: not shown
# light: B1 light
# notes: as for B1
# B20: GpH7-A5/GpH7-B3 variant L235_03V/GpL16-k0 (antibody, human IgG1, kappa)
# heavy 1: not shown
# heavy 2: not shown
# light: B1 light
# notes: as for B1
# B21: GpH7-A5/GpH7-B3 variant L235_18N/GpL16-k0 (antibody, human IgG1, kappa)
# heavy 1: not shown
# heavy 2: not shown
# light: B1 light
# notes: as for B1
# B22: GpH7-A5/GpH7-B3 variant L235_11K/GpL16-k0 (antibody, human IgG1, kappa)
# heavy 1: not shown
# heavy 2: not shown
# light: B1 light
# notes: as for B1
# B23: GpH7-A5/GpH7-B3 variant L234_15Y/GpL16-k0 (antibody, human IgG1, kappa)
# heavy 1: not shown
# heavy 2: not shown
# light: B1 light
# notes: as for B1
# B24: GpH7-A5/GpH7-B3 variant E269_01G/GpL16-k0 (antibody, human IgG1, kappa)
# heavy 1: not shown
# heavy 2: not shown
# light: B1 light
# notes: He Ab: alteration in one H chain only; also called He Ab
# B25: GpH7-A5/GpH7-B3 variant E269_07I/GpL16-k0 (antibody, human IgG1, kappa)
# heavy 1: not shown
# heavy 2: not shown
# light: B1 light
# notes: as for B24
# B26: GpH7-A5/GpH7-B3 variant E269_03V/GpL16-k0 (antibody, human IgG1, kappa)
# heavy 1: not shown
# heavy 2: not shown
# light: B1 light
# notes: as for B24
# B27: GpH7-A5/GpH7-B3 variant E269_11K/GpL16-k0 (antibody, human IgG1, kappa)
# heavy 1: not shown
# heavy 2: not shown
# light: B1 light
# notes: as for B24
# B28: GpH7-A5/GpH7-B3 variant E269_02A/GpL16-k0 (antibody, human IgG1, kappa)
# heavy 1: not shown
# heavy 2: not shown
# light: B1 light
# notes: as for B24
# B29: GpH7-A5/GpH7-B3 variant E269_06M/GpL16-k0 (antibody, human IgG1, kappa)
# heavy 1: not shown
# heavy 2: not shown
# light: B1 light
# notes: as for B24
# B30: GpH7-A5/GpH7-B3 variant E269_08L/GpL16-k0 (antibody, human IgG1, kappa)
# heavy 1: not shown
# heavy 2: not shown
# light: B1 light
# notes: as for B24
# B31: GpH7-A5/GpH7-B3 variant E269_12R/GpL16-k0 (antibody, human IgG1, kappa)
# heavy 1: not shown
# heavy 2: not shown
# light: B1 light
# notes: as for B24
# B32: GpH7-A5/GpH7-B3 variant L235_12R/GpL16-k0 (antibody, human IgG1, kappa)
# heavy 1: not shown
# heavy 2: not shown
# light: B1 light
# notes: as for B24
# Molecular target: T1, FcγRIIa H
# Experiment: SPR (Biacore), antibody captured, FcγR as analyte; binding relative to GpH7-A5/GpH7-B3/GpL16-k0 = 100
row,He/Con_2aH,Binder
1,89.1 control = 100,B1
2,80.4 control = 100,B2
3,40.8 control = 100,B3
4,93.5 control = 100,B4
5,81 control = 100,B5
6,54.1 control = 100,B6
7,87.3 control = 100,B7
8,120 control = 100,B8
9,78.1 control = 100,B9
10,147 control = 100,B10
11,75.6 control = 100,B11
12,47.7 control = 100,B12
13,66.1 control = 100,B13
14,59.4 control = 100,B14
15,79.2 control = 100,B15
16,57.1 control = 100,B16
17,48.1 control = 100,B17
18,71.5 control = 100,B18
19,62 control = 100,B19
20,85.3 control = 100,B20
21,66.1 control = 100,B21
22,22.7 control = 100,B22
23,120 control = 100,B23

# Molecular target: T2, FcγRIIb
# Experiment: as above
row,He/Con_2b,Binder
1,46.6 control = 100,B1
2,59.3 control = 100,B2
3,16.2 control = 100,B3
4,72.9 control = 100,B4
5,64.9 control = 100,B5
6,35.4 control = 100,B6
7,59.4 control = 100,B7
8,99.8 control = 100,B8
9,62.5 control = 100,B9
10,58.2 control = 100,B10
11,50.7 control = 100,B11
12,18.9 control = 100,B12
13,48.2 control = 100,B13
14,49.4 control = 100,B14
15,60.3 control = 100,B15
16,39.1 control = 100,B16
17,24.7 control = 100,B17
18,46.8 control = 100,B18
19,42.6 control = 100,B19
20,66.4 control = 100,B20
21,54.9 control = 100,B21
22,6.3 control = 100,B22
23,96.3 control = 100,B23

# Molecular target: T3, FcγRIIb extracellular domain with …
# Experiment: SPR, relative to GpH7-A5/GpH7-B3/GpL16-k0
# Procedure: (§1) The heterodimerized antibodies He Abs in which one of the H chains was introduced with an alteration were assayed for their binding activities to each activating FcγR and inhibitory FcγR according to the method described in Example 4. […] The activating FcγRs in FIGS. 26, 27, 28, and 29 are FcγRIa, FcγRIIa (R), FcγRIIa (H), and FcγRIIIa, respectively.
# (§2) Analysis of interaction between objective antibody and the FcγR was carried out using Biacore T100 (GE Healthcare). HBS-EP+ (GE Healthcare) was used as the running buffer, and the measurement temperature was set to 25° C. Chips produced by immobilizing the antigen peptide by the amine coupling method to a Series S Sencor Chip CM5 (GE Healthcare), or alternatively, chips produced by allowing preliminarily biotinylated antigen peptides to interact with and immobilize onto a Series S Sensor Chip SA (certified) (GE Healthcare) were used. Antibodies of interest were captured onto an antigen peptide-immobilized chip, and allowed to interact to each FcγR diluted with running buffer. To regenerate and repeatedly use the chip, the antibodies captured on the chip were washed off by reacting 10 mM glycine-HCl, pH 1.5.
row,He/Con_2b,Binder
1,51.5 control=100,B24
2,43.9 control=100,B25
3,45.1 control=100,B26
4,17.8 control=100,B27
5,49.9 control=100,B28
6,46.7 control=100,B29
7,42.9 control=100,B30
8,25.2 control=100,B31

# Molecular target: T4, FcγRIIIa extracellular domain with C-terminal His tag (human, UniProt P08637 17-208)
# T4 construct: extracellular domain; also called 3a; FcgRIIIa
# Experiment: SPR, relative to GpH7-A5/GpH7-B3/GpL16-k0
# Procedure: as §1, §2
# T4 sequence (P08637 17-208): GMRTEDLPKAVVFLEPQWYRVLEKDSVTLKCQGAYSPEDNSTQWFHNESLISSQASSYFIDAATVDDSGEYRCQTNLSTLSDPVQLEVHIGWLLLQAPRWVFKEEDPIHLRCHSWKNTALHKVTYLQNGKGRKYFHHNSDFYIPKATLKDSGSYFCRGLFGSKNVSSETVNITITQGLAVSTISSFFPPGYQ
row,He/Con_3a,Binder
1,62.2 control=100,B24
2,41.2 control=100,B32
3,55.8 control=100,B25
4,56.6 control=100,B26
5,44 control=100,B27
6,68.7 control=100,B28
7,58.5 control=100,B29
8,52.1 control=100,B30
9,43.2 control=100,B31

# Molecular target: T4, FcγRIIIa extracellular domain with …
# Experiment: SPR; He/Con_3a over He/Con_2b (FcγRIIb)
row,He_3a/2b (IIIa/IIb),Binder
1,1.21 ratio,B24
2,4.29 ratio,B32
3,1.27 ratio,B25
4,1.25 ratio,B26
5,2.47 ratio,B27
6,1.38 ratio,B28
7,1.25 ratio,B29
8,1.21 ratio,B30
9,1.72 ratio,B31

# Molecular target: T1, FcγRIIa H
# Experiment: ratio of He/Con_2aH to He/Con_2b (relative SPR binding to FcγRIIa H over FcγRIIb)
row,He_2aH/2b (IIaH/IIb),Binder
1,1.91,B1
2,1.36,B2
3,2.52,B3
4,1.28,B4
5,1.25,B5
6,1.53,B6
7,1.47,B7
8,1.2,B8
9,1.25,B9
10,2.52,B10
11,1.49,B11
12,2.53,B12
13,1.37,B13
14,1.2,B14
15,1.31,B15
16,1.46,B16
17,1.94,B17
18,1.53,B18
19,1.45,B19
20,1.28,B20
21,1.2,B21
22,3.61,B22
23,1.25,B23
